Assay results published in patent publication US20260209385A1 (ANALYTICAL BIOSCIENCES SHANGHAI, published 2026).

Key:
[1] = molecular target: T1, hCCR8 antigen on hCCR8-transfected 293T cells (human, UniProt P51685 1-355); assay: flow cytometry on hCCR8-transfected 293T cells, FITC anti-human IgG Fc, median fluorescence, 4-parameter fit
T1 construct: whole, on cells; also called human CCR8
Protocol: (§1) Serially diluted antibodies or bispecifics were then added, with a maximum final concentration of 1000 nM and 3-fold dilution using PBS buffer. After incubating on ice for 30 mins, the plates were washed two times with FACS buffer (PBS buffer with 0.5 mg/ml BSA, 0.02% tween) and incubated with FITC anti-human IgG antibody (Goat Anti Human (IgG Fc) secondary antibody FITC, Abcam #ab97224, 1:1000) on ice for 30 mins, followed by two times wash with FACS buffer. […] Data were analyzed with GraphPad Prism. Median fluorescent intensity was plotted versus antibody concentration and EC50 was calculated by fitting the curve with the function of log (agonist) vs. response—Variable slope (four parameters).

[2] = molecular target: T2, hCD3 antigen on Jurkat clone E6-1 cells (human); assay: flow cytometry on Jurkat cells, FITC anti-human IgG Fc, median fluorescence, 4-parameter fit
T2 construct: whole, on cells; also called human CD3; hCD3 (Jurkat cell)
T2 sequence (P07766 23-207, chain 1 of 4): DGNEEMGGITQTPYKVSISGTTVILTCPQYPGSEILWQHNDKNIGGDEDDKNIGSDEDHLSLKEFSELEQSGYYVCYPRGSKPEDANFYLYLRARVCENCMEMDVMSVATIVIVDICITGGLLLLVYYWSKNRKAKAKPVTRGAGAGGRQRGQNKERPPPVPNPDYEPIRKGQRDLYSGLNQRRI
T2 sequence (P09693 23-182, chain 2 of 4, further chain): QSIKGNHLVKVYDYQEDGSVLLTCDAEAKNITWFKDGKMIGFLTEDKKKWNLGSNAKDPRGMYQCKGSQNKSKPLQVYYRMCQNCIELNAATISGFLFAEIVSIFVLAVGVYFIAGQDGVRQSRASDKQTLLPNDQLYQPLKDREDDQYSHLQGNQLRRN
T2 sequence (P04234 22-171, chain 3 of 4, further chain): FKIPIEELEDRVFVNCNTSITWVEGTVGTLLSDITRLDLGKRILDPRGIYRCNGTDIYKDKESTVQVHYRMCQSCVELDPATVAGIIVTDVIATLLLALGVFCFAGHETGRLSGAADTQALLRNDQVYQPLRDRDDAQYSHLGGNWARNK
T2 sequence (P20963 22-164, chain 4 of 4, further chain): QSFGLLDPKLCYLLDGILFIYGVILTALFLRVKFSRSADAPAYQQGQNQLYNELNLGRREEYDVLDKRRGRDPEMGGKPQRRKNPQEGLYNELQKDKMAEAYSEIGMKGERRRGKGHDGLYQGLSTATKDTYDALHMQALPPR
Protocol: as §1

T1 sequence (P51685 whole entry): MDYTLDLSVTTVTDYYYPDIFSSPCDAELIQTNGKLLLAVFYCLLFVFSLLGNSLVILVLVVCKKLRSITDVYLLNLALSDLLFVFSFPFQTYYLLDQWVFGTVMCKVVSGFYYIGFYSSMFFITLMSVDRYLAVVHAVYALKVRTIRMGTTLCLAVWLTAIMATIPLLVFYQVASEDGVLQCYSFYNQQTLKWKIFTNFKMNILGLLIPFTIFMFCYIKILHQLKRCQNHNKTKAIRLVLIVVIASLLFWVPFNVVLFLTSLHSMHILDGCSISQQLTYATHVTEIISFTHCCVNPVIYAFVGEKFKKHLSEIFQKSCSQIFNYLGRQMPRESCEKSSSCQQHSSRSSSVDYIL

EC50 [1]	EC50 [2]	Binder
0.34 nM	–	ABC138 (anti-hCCR8 parental antibody) (antibody, human IgG1, kappa, V domains shown) VH: EVQLVESGGGLVQPGGSLRLSCAASGFPFNTFAMNWVRQAPGKGLEWLARIRSKSNNYATYYADSVKDRFTISRDNAKRSLYLQMNSLRAEDTAVYYCVRGKENNYGYAMDYWGQGTTVTVSS VL: DIVMTQSPLSLPVTPGEPASISCRSSKSLLHSNANTYLYWFLQKPGQSPQLLIYRMSNLASGVPDRFSGSGSGTDFTLKISRVEAEDVGVYYCMQHVEYPFTFGGGTKLEIKR
2.9 nM	2.57 nM	ABC752 (ABC752_hCCR8/hCD3_673, anti-hCCR8 x anti-hCD3 BsAb in ABC673 format) (bispecific antibody, human IgG1, kappa, N297A) heavy 1: EVQLVESGGGLVQPGGSLRLSCAASGFPFNTFAMNWVRQAPGKGLEWLARIRSKSNNYATYYADSVKDRFTISRDNAKRSLYLQMNSLRAEDTAVYYCVRGKENNYGYAMDYWGQGTTVTVSSASTKGQVKPEAWLSHCPSPGPGHLQLVCHVSGFYPKPVWVMWMRGEQEQQGTQRSEILPSADGTWYLRATLEVAAGEAADLSCRVKHSSLEGQDIVLYWEGSDKTHTCPPCPAPELLGGPSVFLFPPKPKDTLMISRTPEVTCVVVDVSHEDPEVKFNWYVDGVEVHNAKTKPREEQYASTYRVVSVLTVLHQDWLNGKEYKCKVSNKALPAPIEKTISKAKGQPREPQVCTLPPSREEMTKNQVSLSCAVKGFYPSDIAVEWESNGQPENNYKTTPPVLDSDGSFFLVSKLTVDKSRWQQGNVFSCSVMHEALHNHYTQKSLSLSPGK light 1: not shown heavy 2: not shown light 2: not shown
2.14 nM	2.09 nM	ABC753 (ABC753_hCCR8/hCD3_675, anti-hCCR8 x anti-hCD3 BsAb in ABC675 format) (bispecific antibody, human IgG1, kappa, N297A) heavy 1: EVQLVESGGGLVQPGGSLRLSCAASGFPFNTFAMNWVRQAPGKGLEWLARIRSKSNNYATYYADSVKDRFTISRDNAKRSLYLQMNSLRAEDTAVYYCVRGKENNYGYAMDYWGQGTTVTVSSASTKGQVKPEAWLSSCPSPGPGRLQLVCHVSGFYPKPVWVMWMRGEQEQQGTQLSEILPNANWTWYLRATLDVADGEAAGLSCRVKHSSLEGQDIILYWRGSGDKTHTCPPCPAPELLGGPSVFLFPPKPKDTLMISRTPEVTCVVVDVSHEDPEVKFNWYVDGVEVHNAKTKPREEQYASTYRVVSVLTVLHQDWLNGKEYKCKVSNKALPAPIEKTISKAKGQPREPQVCTLPPSREEMTKNQVSLSCAVKGFYPSDIAVEWESNGQPENNYKTTPPVLDSDGSFFLVSKLTVDKSRWQQGNVFSCSVMHEALHNHYTQKSLSLSPGK light 1: not shown heavy 2: not shown light 2: not shown
